Reference: the supplement of paper PMC12855868

B1: library; numbered along this chain (parent)
chain: MAAAGGARLLRAASAVLGGPAGRWLHHAGSRAGSSGLLRNRGPGGSAEASRSLSVSARARSSSEDKITVHFINRDGETLTTKGKVGDSLLDVVVENNLDIDGFGACEGTLACSTCHLIFEDHIYEKLDAITDEENDMLDLAYGLTDRSRLGCQICLTKSMDNMTVRVPETVADARQSIDVGKTS

Variants of: B1
Assay: scaled log2 fold change in cell abundance, elesclomol vs control (0 = silent mean, 1 = nonsense mean) (scaled log2 ratio); higher = higher viability under elesclomol (loss of FDX1 cuproptosis function)
Settings: glucose 10 mM
[1] = with ABC1 FDX1 KO, elesclomol 5 nM, 14 days
[2] = with HEK293T FDX1 KO, elesclomol 40 nM, 11 days
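Further: variant abundance is its share of total variant reads in each endpoint sample, from next-generation sequencing of the integrated ORF PCR-amplified out of genomic DNA.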

| Variant | scaled log2 fold change [1] | scaled log2 fold change [2] |
| --- | --- | --- |
| D128V | 0.419 | -0.465 |
| D128R | -1.26 | -0.293 |
| D128W | -0.0394 | -0.406 |
| D128C | 0.113 | 0.174 |
| D128Q | -0.253 |  |
| D128F | -0.376 | 0.338 |
| D128I | -0.0983 | -0.34 |
| D128S | -0.519 | 1.1 |
| D128L | 0.397 | -0.761 |
| D128T | -0.378 |  |
| D128Y | -0.45 | 0.0308 |
| D128E | 0.267 | 0.301 |
| D128N | -0.106 | -0.13 |
| D128H | 0.277 |  |
| D128M | -0.149 | -0.00382 |
| D128P | 0.196 |  |
| D128A | -0.474 | -0.104 |
| D128K | -0.0506 | -0.0961 |
| D128G | 0.0426 |  |
| T131R | -0.448 | 0.487 |
| T131C | -0.2 | -0.521 |
| T131N | 0.126 | -0.681 |
| T131A | -0.777 | 0.0649 |
| T131Q | 0.134 | 0.928 |

| Variant | scaled log2 fold change [1] | scaled log2 fold change [2] |
| --- | --- | --- |
| T131D | 0.127 | -0.23 |
| T131L | -0.29 | 0.562 |
| T131H | -0.186 | 0.267 |
| T131I | -0.0956 | 0.347 |
| T131M | 0.154 |  |
| T131S | 0.0867 |  |
| T131G | 0.277 |  |
| T131F | -1.03 | 0.443 |
| T131Y | 0.17 | -0.668 |
| T131V | -0.238 | 0.525 |
| T131W | 0.374 | -0.135 |
| T131P | 0.137 | -0.104 |
| T131E | 0.357 | -0.395 |
| T131K | -0.138 | 2.11 |
| E133L | -0.204 | 0.0198 |
| E133I | 0.458 | -0.339 |
| E133H | -0.148 | -0.764 |
| E133D | 0.319 | 0.453 |
| E133C | 0.215 | -0.346 |
| E133N | -0.113 | -0.0813 |
| E133M | -0.152 | -0.547 |
| E133G | -0.151 | -0.168 |
| E133A | -0.216 | 1.27 |
| E133F | -0.18 | -0.56 |

| Variant | scaled log2 fold change [1] | scaled log2 fold change [2] |
| --- | --- | --- |
| E133K | 0.105 | 0.342 |
| D132M | -0.07 | -0.451 |
| D132E | 0.299 | 0.371 |
| D132A | -0.35 | -0.0723 |
| D132H | 0.104 | -1.46 |
| D132V | 0.152 | -0.737 |
| D132I | -0.789 |  |
| D132K | -0.0835 | 0.943 |
| D132C | -0.0894 | -0.0904 |
| D132S | -0.409 | 1.12 |
| D132P | -0.221 | -0.681 |
| D132L | 0.217 | -0.447 |
| D132T | -0.0728 | -0.282 |
| D132Q | 0.014 | 0.0254 |
| D132R | -0.373 | -0.177 |
| D132F | -0.0218 | -0.336 |
| D132N | -0.0637 |  |
| D132Y | 0.176 | 1.12 |
| D132G | -0.0468 | 0.9 |
| D132W | -0.0682 | -0.335 |
| L127Y | 0.24 | -0.426 |
| L127T | 0.249 | -0.0113 |
| L127Q | 0.446 | 0.00947 |
| L127F | -0.388 | -0.405 |

| Variant | scaled log2 fold change [1] | scaled log2 fold change [2] |
| --- | --- | --- |
| L127M | 0.152 | 0.302 |
| L127R | 0.785 | 0.151 |
| L127I | 0.0723 | 0.119 |
| L127K | 0.682 | 0.253 |
| L127G | 0.701 | -0.0303 |
| L127P | 0.814 | 1.12 |
| L127W | 0.322 | 0.0443 |
| L127S | 0.442 | 0.345 |
| L127N | 0.0507 | 1.27 |
| L127V | 0.0908 | 0.603 |
| L127D | 0.521 | -0.11 |
| L127H | 0.038 | 0.312 |
| L127E | 0.573 | 0.536 |
| I130G | -0.279 | -0.433 |
| I130Q | 0.0588 | -0.458 |
| I130W | -0.285 | -0.314 |
| I130H | 0.0428 | 0.239 |
| I130V | 0.000565 | -0.448 |
| I130T | -0.0905 | -0.0285 |
| I130N | -0.0924 | 0.234 |
| I130S | 0.236 | 0.715 |
| I130C | -0.188 | 1.38 |
| I130M | 0.336 | -0.481 |
| I130Y | 0.33 | 0.102 |

| Variant | scaled log2 fold change [1] | scaled log2 fold change [2] |
| --- | --- | --- |
| I130A | 0.429 |  |
| I130L | -0.083 | -0.116 |
| I130D | 0.59 | 0.0795 |
| I130R | -0.234 | 0.125 |
| I130E | -0.051 | -0.419 |
| I130P | -0.462 | -0.467 |
| I130F | 0.211 | -0.285 |
| I130K | -0.203 | 0.0187 |
| A129F | 0.044 | -0.227 |
| A129I | 0.162 | -0.508 |
| A129C | -0.31 | 0.555 |
| A129S | 0.0531 | -0.075 |
| A129R | 0.464 | -0.0758 |
| A129G | 0.16 |  |
| A129W | -0.08 | 1.07 |
| A129Y | -0.538 |  |
| A129L | 0.598 | 1.27 |
| A129P | 0.272 | 0.0261 |
| A129K | -0.557 | -0.17 |
| A129M | -0.0116 |  |
| A129E | -0.447 | -0.333 |
| A129V | 0.217 | 0.196 |
| A129D | -0.23 | 0.439 |
| A129H | -0.541 |  |
